{
  "source": "patent US20240424125A1",
  "about": "(Zymeworks, published 2024)",
  "binders": {"B1": {"name": "v30384 (antibody, human IgG1, kappa)", "heavy 1": "EVQLLESGGGLVQPGGSLRLSCAVSGFSLSSYGVSWVRQAPGKGLEWIGAVNSGGSAYYADSVKGRSTISRDNSKNTVYLQMNSLRAEDTAVYYCARSGSGYPMDYLAIWGQGTLVTVSSASTKGPSVFPLAPSSKSTSGGTAALGCLVKDYFPEPVTVSWNSGALTSGVHTFPAVLQSSGLYSLSSVVTVPSSSLGTQTYICNVNHKPSNTKVDKKVEPKSCDKTHTCPPCPAPELLGGPSVFLFPPKPKDTLMISRTPEVTCVVVDVSHEDPEVKFNWYVDGVEVHNAKTKPREEQYNSTYRVVSVLTVLHQDWLNGKEYKCKVSNKALPAPIEKTISKAKGQPREPQVYVYPPSRDELTKNQVSLTCLVKGFYPSDIAVEWESNGQPENNYKTTPPVLDSDGSFALVSKLTVDKSRWQQGNVFSCSVMHEALHNHYTQKSLSLSPG", "heavy 2": "not shown", "light": "DYQMTQSPSSVSASVGDRVTITCRASQSIGDWLAWYQQKPGKAPKLLIYEASTLASGVPSRFSGSGSGTDFTLTISSVQPEDAATYYCQQGYGRSNVDNIFGGGTKVEVKRTVAAPSVFIFPPSDEQLKSGTASVVCLLNNFYPREAKVQWKVDNALQSGNSQESVTEQDSKDSTYSLSSTLTLSKADYEKHKVYACEVTHQGLSSPVTKSFNRGEC", "notes": "Humanized full-size IgG1/kappa antibody with heterodimeric Fc (HetFc); also called humanized variant v30384; parental humanized"}},
  "key": {"[1]": {"target": "T1, recombinant His-tagged human FRα (ACROBiosystems) (human, UniProt P15328 25-233)", "T1 construct": "also called hFRα; hFRα antigen; not shown: His tag", "T1 sequence (P15328 25-233 limits assumed)": "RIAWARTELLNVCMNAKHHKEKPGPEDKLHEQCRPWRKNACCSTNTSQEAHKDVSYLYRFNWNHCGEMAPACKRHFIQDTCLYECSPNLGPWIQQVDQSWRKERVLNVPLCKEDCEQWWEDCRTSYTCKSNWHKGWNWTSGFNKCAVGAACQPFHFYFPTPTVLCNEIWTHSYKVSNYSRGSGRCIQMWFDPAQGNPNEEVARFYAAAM", "assay": "SPR (Biacore T200): hFRα amine-coupled to CM5 chip at high antigen density, bivalent FSA injected, 1:1 Langmuir fit, mean of n=2", "experimental": "(§1) CM5 Series S sensor chip, Biacore™ amine coupling kit (NHS, EDC and 1 M ethanolamine), and 10 mM sodium acetate buffers were purchased from GE Healthcare Life Science (Mississauga, ON, Canada). PBS running buffer with 0.05% Tween20 (PBST) was purchased from Teknova Inc. (Hollister, CA). Recombinant human FRα was purchased from ACRObiosystems (Newark, DE).\n(§2) Screening of the variants for binding to hFRα antigen was conducted in two steps: capture of hFRα onto surface, followed by injection of three to five concentrations of variant. The hFRα surface was prepared on a CM5 Series S sensor chip by standard amine coupling methods as described by the manufacturer (GE Healthcare Life Science, Mississauga, ON, Canada). The immobilization of the hFRα was performed using Biacore™ T200 immobilization wizard with an amine coupling method aiming for resonance units (RUs) ranging from 5 to 200 RUs. Using multi-cycle kinetics, three to five concentrations of a two-fold dilution series of samples starting at 300 nM with a blank buffer control were injected at 50 uL/min for 180s with a 600s dissociation phase, resulting in a set of sensorgrams with a buffer blank reference. The hFRα surface was regenerated to prepare for the next injection cycle by one pulse of 10 mM glycine/HCl pH 1.5 for 30s at 30 uL/min. Blank-subtracted sensorgrams were analyzed using Biacore™ T200 Evaluation Software v3.0. The blank-subtracted sensorgrams were then fit to the 1:1 Langmuir binding model."}, "human FRα on cells [2]": {"target": "T2, human FRα on cells (human, UniProt P15328 25-234)", "T2 construct": "Transiently expressed on HEK293-6e, CHO-S or HEK293 microarray cells, or endogenous on JEG-3, HEC-1-A, IGROV-1, OVCAR-3, H2110, KB-HeLa and T-47D cells; also called human folate receptor alpha; FOLR1", "T2 sequence (P15328 25-234 limits assumed)": "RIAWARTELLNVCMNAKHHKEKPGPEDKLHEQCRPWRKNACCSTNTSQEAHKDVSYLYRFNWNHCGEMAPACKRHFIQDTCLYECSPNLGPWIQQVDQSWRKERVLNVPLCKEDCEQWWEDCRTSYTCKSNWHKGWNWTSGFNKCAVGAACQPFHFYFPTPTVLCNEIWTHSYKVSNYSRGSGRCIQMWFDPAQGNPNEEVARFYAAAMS", "assay": "apparent Kd, flow cytometry on JEG-3 cells (endogenous FRα), 24 h at 4°C", "experimental": "(§3) Briefly, cells were seeded at 50,000 cells/well in V-bottom 96-well plates and treated with antibody for 24 hours at 4° C. to prevent internalization. […] Following incubation and washing, fluorescence was detected by flow cytometry on a BD LSRFortessa™ Cell Analyzer (BD Biosciences, Franklin Lake, NJ) with 1,000 minimum events collected per well. AF647/APC-A GeoMean (fluorescence signal geometric mean, proportional to anti-Human AF647 binding) in live cell population was plotted using GraphPad Prism Version 9 (GraphPad Software, San Diego, CA)."}, "[3]": {"target": "T1, recombinant His-tagged human FRα …", "assay": "SPR (Biacore T200): hFRα amine-coupled to CM5 chip at medium antigen density, bivalent FSA injected, 1:1 Langmuir fit, mean of n=2", "experimental": "as §1, §2"}, "[4]": {"target": "T1, recombinant His-tagged human FRα …", "assay": "SPR (Biacore T200): hFRα amine-coupled to CM5 chip at medium-low antigen density, bivalent FSA injected, 1:1 Langmuir fit, mean of n=2", "experimental": "as §1, §2"}, "human FRα on cells [5]": {"target": "T2, human FRα on cells", "assay": "apparent Kd, flow cytometry on HEC-1-A cells (endogenous FRα), 24 h at 4°C", "experimental": "as §3"}, "human FRα on cells [6]": {"target": "T2, human FRα on cells", "assay": "apparent Kd, flow cytometry on JEG-3 cells (endogenous FRα), as in Example 16", "experimental": "as §3"}, "[7]": {"target": "T1, recombinant His-tagged human FRα …", "assay": "BLI (Octet RED96) as in Example 8: antibody captured, His-tagged hFRα as analyte, mean of n=2", "in_short": "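Run at 30° C with 1000 rpm shaking in kinetics buffer (PBS pH 7.4, 0.1% BSA, 0.02% Tween 20, 0.05% sodium azide) plus 0.06% Tween 20, sometimes 1% BSA. Reference-subtracted curves globally fitted to a 1:1 model, giving kon, koff and KD.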"}, "[8]": {"target": "T1, recombinant His-tagged human FRα …", "assay": "SPR (Biacore T200), high antigen density; end of the range tied to v30384 by Table 8.3", "experimental": "as §2"}, "human FRα on cells [9]": {"target": "T2, human FRα on cells", "assay": "apparent Kd, flow cytometry on IGROV-1 cells (endogenous FRα), as in Example 16", "experimental": "as §3"}, "[10]": {"target": "T1, recombinant His-tagged human FRα …", "assay": "BLI (Octet RED96): antibody loaded on anti-human IgG Fc capture biosensors, His-tagged hFRα in solution. Six traces with fit lines plateau between about 0.06 and 0.36 nm during 0-400 s association and return to baseline by about 520 s. The legend prints the same globally fitted KD for all six traces (single run; the text prints only the mean of n=2).", "experimental": "(§4) The assay buffer used was KB buffer (kinetics buffer, composed of PBS pH 7.4, 0.1% BSA, 0.02% Tween 20, 0.05% sodium azide) supplemented with 0.06% Tween 20 and in some instances also with 1% BSA. The experiment was conducted at 30° C. with a shake speed of 1000 rpm.\n(§5) Data analysis was performed using Data Analysis Software 9.0 (ForteBio, Fremont CA). The reference-subtracted binding curves were globally fitted to the 1:1 interaction model to generate the binding kinetic parameters kₒₙ, koff, and the dissociation constant KD."}, "human FRα on cells [11]": {"target": "T2, human FRα on cells", "assay": "cell-based or functional assay"}, "[12]": {"target": "T1, recombinant His-tagged human FRα …", "assay": "BLI (Octet RED96): antibody on anti-human IgG Fc capture biosensor, His-tagged hFRα as analyte, 1:1 global fit, mean of n=2", "experimental": "as §4, §5"}},
  "data": [
    {"binder": "B1", "values": [
      {"measurement": "Kd", "setting": "[1]", "value": 0.79, "unit": "nM"},
      {"measurement": "Kd", "setting": "human FRα on cells [2]", "value": 0.31, "unit": "nM"},
      {"measurement": "Kd", "setting": "[3]", "value": 2.58, "unit": "nM"},
      {"measurement": "Kd", "setting": "[4]", "value": 3.76, "unit": "nM"},
      {"measurement": "Kd", "setting": "human FRα on cells [5]", "value": 0.07, "unit": "nM"},
      {"measurement": "Kd", "setting": "human FRα on cells [6]", "value": 0.5, "unit": "nM"},
      {"measurement": "Kd", "setting": "[7]", "value": 127, "unit": "nM"},
      {"measurement": "fold lower KD in FSA compared to one-armed antibody (OAA) format", "setting": "[8]", "value": 181, "unit": "fold"},
      {"measurement": "Kd", "setting": "human FRα on cells [9]", "value": 1.38, "unit": "nM"},
      {"measurement": "Kd", "setting": "[10]", "value": 109, "unit": "nM"},
      {"measurement": "fold increase in internalized fluorescence compared to farletuzumab; IGROV-1 cells, 6-hour incubation, 5 nM", "setting": "human FRα on cells [11]", "value": 19.1, "unit": "fold"},
      {"measurement": "fold increase in internalized fluorescence compared to farletuzumab; IGROV-1 cells, 6-hour incubation, 25 nM", "setting": "human FRα on cells [11]", "value": 6.1, "unit": "fold"},
      {"measurement": "fold increase in internalized fluorescence compared to farletuzumab; IGROV-1 cells, 24-hour incubation, 5 nM", "setting": "human FRα on cells [11]", "value": 4.7, "unit": "fold"},
      {"measurement": "fold increase in internalized fluorescence compared to farletuzumab; IGROV-1 cells, 24-hour incubation, 25 nM", "setting": "human FRα on cells [11]", "value": 3.9, "unit": "fold"},
      {"measurement": "fold increase in internalized fluorescence compared to mirvetuximab; IGROV-1 cells, 6-hour incubation, 5 nM", "setting": "human FRα on cells [11]", "value": 2.6, "unit": "fold"},
      {"measurement": "fold increase in internalized fluorescence compared to mirvetuximab; IGROV-1 cells, 6-hour incubation, 25 nM", "setting": "human FRα on cells [11]", "value": 3.3, "unit": "fold"},
      {"measurement": "fold increase in internalized fluorescence compared to mirvetuximab; IGROV-1 cells, 24-hour incubation, 5 nM", "setting": "human FRα on cells [11]", "value": 1.9, "unit": "fold"},
      {"measurement": "fold increase in internalized fluorescence compared to mirvetuximab; IGROV-1 cells, 24-hour incubation, 25 nM", "setting": "human FRα on cells [11]", "value": 2.1, "unit": "fold"},
      {"measurement": "Kd", "setting": "[12]", "value": 110, "unit": "nM"}
    ]}
  ]
}
